Measurements reported in patent publication US20060199247A1.

Target: beef heart phosphodiesterase (Boeringer Mannheim) (beef)

phosphodiesterase activity: 6.5 fold
Substance: calmodulin
